Source: US20210340211A1 (UNIVERSITY OF COPENHAGEN, published 2021)
Ends that are not written are not given here.

How the values were obtained:
human GIP receptor [1] = molecular target: T1, human GIP receptor (human, UniProt P48546 22-466); assay: cell-based or functional assay
T1 sequence (looked up): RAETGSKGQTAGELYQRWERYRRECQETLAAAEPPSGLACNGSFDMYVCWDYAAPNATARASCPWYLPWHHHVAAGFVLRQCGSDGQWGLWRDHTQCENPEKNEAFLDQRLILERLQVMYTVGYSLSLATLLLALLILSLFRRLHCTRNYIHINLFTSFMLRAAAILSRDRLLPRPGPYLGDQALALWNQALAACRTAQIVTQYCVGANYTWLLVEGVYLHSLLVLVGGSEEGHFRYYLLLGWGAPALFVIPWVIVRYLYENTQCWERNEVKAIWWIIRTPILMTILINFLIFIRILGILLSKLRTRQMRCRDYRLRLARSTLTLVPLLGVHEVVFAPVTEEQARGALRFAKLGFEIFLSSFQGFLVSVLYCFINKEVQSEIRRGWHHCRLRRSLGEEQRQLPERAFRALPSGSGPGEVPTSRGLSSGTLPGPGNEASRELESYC

human GIP receptor [2] = molecular target: T1, human GIP receptor; assay: cell-based or functional assay; remark: listed apart in the source
human GIP receptor [3] = molecular target: T1, human GIP receptor; assay: competition binding vs 125I-GIP(1-42), COS-7 cells transfected with human GIP receptor
Procedure: (§1) Nonspecific binding was determined as the binding of radioligand to untransfected cells. All determinations were made in duplicates, and all experiments repeated at least three times. The samples were analyzed for radioactivity using a Wallac Wizard 1470 Gamma Counter (GMI Inc., Minnesota, USA). The number “n” refers to individual experiments with separate transfections although from same cell line.
(§2) Statistical analyses (unpaired t-tests) of two parameters were also performed with GraphPad Prism 6.0. […] Kd is the dissociation constant determined by homologous receptor binding.

human GIP receptor [4] = molecular target: T1, human GIP receptor; assay: competition binding vs 125I-GIP(1-30)NH2, COS-7 cells transfected with human GIP receptor
Procedure: as §1, §2

human GIP receptor [5] = molecular target: T1, human GIP receptor; assay: competition binding vs 125I-GIP(2-30)NH2, COS-7 cells transfected with human GIP receptor
Procedure: as §1, §2

human GIP receptor [6] = molecular target: T1, human GIP receptor; assay: homologous competition binding vs 125I-GIP(3-30)NH2, COS-7 cells transfected with human GIP receptor
Procedure: as §1

human GIP receptor [7] = molecular target: T1, human GIP receptor; assay: competition binding vs 125I-GIP(3-30)NH2, COS-7 cells transfected with human GIP receptor
Procedure: as §1, §2

human GIP receptor [8] = molecular target: T1, human GIP receptor; assay: homologous competition binding vs 125I-GIP(2-30)NH2, COS-7 cells transfected with human GIP receptor
Procedure: as §1

human GIP receptor [9] = molecular target: T1, human GIP receptor; assay: cell-based or functional assay; remark: listed apart in the source
human GIP receptor [10] = molecular target: T1, human GIP receptor; assay: competition binding vs 125I-hGIP, COS-7 cells transfected with hGIPR
Procedure: COS-7 cells were seeded in clear 96-well plates the day after transfection using a number of cells/well that obtained 5-10% specific binding of the added radioactive ligand. […] After incubation, the cells were washed twice in ice-cold binding buffer and lysed using 200 mM NaOH with 1% SDS for 30 min. Nonspecific binding was determined as the binding of tracer to untransfected cells.

Row | IC50 (inhibition of GIP(1-42) induced cAMP accumulation) (human GIP receptor [2]) [nM] | logIC50 (inhibition of GIP(1-42) induced cAMP accumulation) (human GIP receptor [2]) | Ki (human GIP receptor [3]) [nM] | fold change of GIP(1-30)NH2 affinity (human GIP receptor [3]) [fold] | logIC (human GIP receptor [3]) | Ki (Schild plot, cAMP accumulation) (human GIP receptor [9]) [nM] | Binder | also measured
1 | 11.8 | -7.93 | 2.3 | 2.6 | -8.63 |  | EGTFISDYSIAMDKIHQQDFVNWLLAQK-NH2 (also called human GIP(3-30)NH2; hGIP(3-30)NH2) [GIP(3-30)NH2] | fold shift in the dose-response curve of human GIP(1-42) by 1 µM antagonist (human GIP receptor [1]): 281 fold; fold decrease in affinity compared to GIP(1-30)NH2 (human GIP receptor [3]): 2.3 fold; IC50 (human GIP receptor [4]): 4.4 nM; fold change GIP(1-30)NH2 (human GIP receptor [4]): 14.5 fold; log (IC50) (human GIP receptor [4]): -8.35; IC50 (human GIP receptor [5]): 0.76 nM; fold change GIP(1-30)NH2 (human GIP receptor [5]): 1.6 fold; log (IC50) (human GIP receptor [5]): -9.12; IC50 (human GIP receptor [6]): 3.4 nM; fold change GIP(1-30)NH2 (human GIP receptor [6]): 2 fold; log (IC50) (human GIP receptor [6]): -8.47
2 | 108 | -6.97 | 21.5 | 24 | -7.67 |  | GTFISDYSIAMDKIHQQDFVNWLLAQK-NH2 (also called human GIP(4-30)NH2; hGIP4-30) [GIP(4-30)NH2] | 
3 | 342 | -6.47 | 347 | 391 | -6.46 |  | FISDYSIAMDKIHQQDFVNWLLAQK-NH2 (also called human GIP(6-30)NH2; hGIP(6-30)) [GIP(6-30)NH2] | fold decrease in affinity compared to GIP(1-30)NH2 (human GIP receptor [3]): 347 fold; fold lower affinity compared to GIP(1-30)NH2 (human GIP receptor [3]): > 300 fold; IC50 (human GIP receptor [4]): 1060 nM; fold change GIP(1-30)NH2 (human GIP receptor [4]): 3500 fold; log (IC50) (human GIP receptor [4]): -5.97; IC50 (human GIP receptor [5]): 340 nM; fold change GIP(1-30)NH2 (human GIP receptor [5]): 707 fold; log (IC50) (human GIP receptor [5]): -6.47; IC50 (human GIP receptor [7]): 370 nM; fold change GIP(1-30)NH2 (human GIP receptor [7]): 223 fold; log (IC50) (human GIP receptor [7]): -6.43
4 |  |  |  |  |  | 7.9 | EGTFISDYSIAMEKIAQQDFVNWLLAQK [hGIP(3-30)D15EH18A] | 
5 |  |  |  |  |  | 35 | EGTFISDYSIAMDKIAQQDFVNWLLAQK (Synthetic variant of hGIP(3-30)) [hGIP(3-30)H18A] | IC50 (human GIP receptor [10]): 2 nM

More lines, now with the values behind:

Row | Binder | IC50 (inhibition of GIP(1-42) induced cAMP accumulation) (human GIP receptor [2]) [nM] | logIC50 (inhibition of GIP(1-42) induced cAMP accumulation) (human GIP receptor [2]) | Ki (human GIP receptor [3]) [nM] | fold change of GIP(1-30)NH2 affinity (human GIP receptor [3]) [fold] | logIC (human GIP receptor [3]) | Ki (Schild plot, cAMP accumulation) (human GIP receptor [9]) [nM] | also measured
6 | DYSIAMDKIHQQDFVNWLLAQK-NH2 (also called human GIP(9-30)NH2; hGIP(9-30)) [GIP(9-30)NH2] | 450 | -6.35 | 307 | 345 | -6.51 |  | right-shift of antagonistic potency compared to GIP(3-30)NH2 (human GIP receptor [1]): 38 fold; fold lower affinity compared to GIP(1-30)NH2 (human GIP receptor [3]): > 300 fold
7 | TFISDYSIAMDKIHQQDFVNWLLAQK-NH2 (also called human GIP(5-30)NH2; hGIP5-30) [GIP(5-30)NH2] | 11.9 | -7.92 | 5.9 | 6.6 | -8.23 |  | 
8 | SDYSIAMDKIHQQDFVNWLLAQK-NH2 (also called human GIP(8-30)NH2; hGIP(8-30)) [GIP(8-30)NH2] | 133 | -6.88 | 79 | 89 | -7.1 |  | 
9 | EGTFISDYSIAMDKIHQQDFVNWLLAQKGKKNDWKHNITQ [human GIP(3-42)] |  |  |  |  |  |  | fold lower antagonistic potency than human GIP(3-30)NH2 (cAMP accumulation) (human GIP receptor [1]): 26 fold; fold shift in the dose-response curve of human GIP(1-42) by 1 µM antagonist (human GIP receptor [1]): 7.3 fold
10 | ISDYSIAMDKIHQQDFVNWLLAQK-NH2 (also called human GIP(7-30)NH2; hGIP(7-30)) [GIP(7-30)NH2] |  |  |  |  | -7.58 |  | 
11 | AEGTFISDYSIAMDKIHQQDFVNWLLAQK-NH2 (also called human GIP(2-30)NH2; hGIP(2-30)) [GIP(2-30)NH2] | 21.7 | -7.66 | 14.3 | 16 | -7.85 |  | fold lower potency than GIP(1-30)NH2 (cAMP accumulation) (human GIP receptor [1]): > 3000 fold; log EC50 (cAMP accumulation) (human GIP receptor [1]): -8.43; potency, EC50 (cAMP accumulation) (human GIP receptor [1]): 3.7 nM; IC50 (human GIP receptor [4]): 26 nM; fold change GIP(1-30)NH2 (human GIP receptor [4]): 84.3 fold; log (IC50) (human GIP receptor [4]): -7.59; IC50 (human GIP receptor [7]): 7.7 nM; fold change GIP(1-30)NH2 (human GIP receptor [7]): 4.6 fold; log (IC50) (human GIP receptor [7]): -8.11; IC50 (human GIP receptor [8]): 2.7 nM; fold change GIP(1-30)NH2 (human GIP receptor [8]): 10.5 fold; log (IC50) (human GIP receptor [8]): -8.57
12 | EGTFISDYSIAMDKIHQQDFVNWLLAQK (also called human GIP3-30) [hGIP(3-30)] |  |  |  |  |  | 15 | IC50 (human GIP receptor [10]): 16 nM
13 | EGTFISDYSIAMDKIKQQDFVNWLLAQK (Synthetic variant of hGIP(3-30)) [hGIP(3-30)H18K] |  |  |  |  |  | 37 | IC50 (human GIP receptor [10]): 7.8 nM
14 | EGTFISDYSIAMDAIAQQDFVNWLLAQK [hGIP(3-30)K16AH18A] |  |  |  |  |  | 15 | 
